12 molecules from article doi:10.1101/2024.06.03.596960 (bioRxiv, 2024) can be followed below.

“And” between values parts separate entries of the source, which are not always exact repeats. Equal values may be shown once.

In series [1] the target is BACH1^BTB A53V mutant (cancer-associated, TCGA) (UniProt O14867). As to the kind of experiment: SEC-MALS. In general terms: In gel filtration, larger molecules generally elute earlier.
Series [2] concerns the target BACH1^BTB Y11A (UniProt O14867). As to the kind of experiment: SEC-MALS.
Series [3] addresses BACH1^BTB E12R (UniProt O14867). Description: SEC-MALS.
Series [4] concerns the target BACH1 BTB domain (residues 7-128), wild type, tag-free (UniProt O14867). As to the kind of experiment: NMR titration.
Series [5] has as its target His10-TEV-BACH1^BTB (UniProt O14867). Description: AlphaScreen or HTRF.
Series [6] concerns the target BACH1 BTB domain (residues 7-128), wild type, tag-free (UniProt O14867). Description: SEC-MALS.
Series [7] has as its target biotinylated ^AviSKP1-FBXO22(12-403) (UniProt P63208). As to the kind of experiment: BLI. In general terms: BLI is a label-free optical method that tracks binding on a fibre tip over time.
Series [8] has the same target. Description: SPR. A general note: In SPR one partner is held on a chip, and binding of the other changes the refractive index at the surface.
In series [9] the target is BACH1^BTB S13A (UniProt O14867). Description: SEC-MALS.
The target in series [10] is BACH1^BTB S13D (UniProt O14867). As to the kind of experiment: SEC-MALS.
In series [11] the target is BACH1^BTB Y11H mutant (cancer-associated, TCGA) (UniProt O14867). Description: SEC-MALS.
In series [12] the target is BACH1^BTB Y11F (UniProt O14867). Description: SEC-MALS.
Series [13] deals with BTFA-modified BACH1^BTB (UniProt O14867).
Series [14] concerns the target BACH1^BTB F9A (UniProt O14867). Description: SEC-MALS.
Series [15] deals with the molecule itself. As to the kind of experiment: mass photometry.
Series [16] addresses SKP1-FBXO22 heterodimer, wild type, tag-free (UniProt P63208). As to the kind of experiment: mass photometry.

Sequence of biotinylated ^AviSKP1-FBXO22(12-403) (P63208 2-163, chain 1 of 2): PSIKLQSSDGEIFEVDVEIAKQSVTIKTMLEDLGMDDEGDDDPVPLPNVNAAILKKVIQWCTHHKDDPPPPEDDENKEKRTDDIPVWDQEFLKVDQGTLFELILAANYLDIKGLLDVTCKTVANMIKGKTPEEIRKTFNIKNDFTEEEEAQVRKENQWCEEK
Sequence of biotinylated ^AviSKP1-FBXO22(12-403) (Q8NEZ5 12-403, chain 2 of 2, further chain): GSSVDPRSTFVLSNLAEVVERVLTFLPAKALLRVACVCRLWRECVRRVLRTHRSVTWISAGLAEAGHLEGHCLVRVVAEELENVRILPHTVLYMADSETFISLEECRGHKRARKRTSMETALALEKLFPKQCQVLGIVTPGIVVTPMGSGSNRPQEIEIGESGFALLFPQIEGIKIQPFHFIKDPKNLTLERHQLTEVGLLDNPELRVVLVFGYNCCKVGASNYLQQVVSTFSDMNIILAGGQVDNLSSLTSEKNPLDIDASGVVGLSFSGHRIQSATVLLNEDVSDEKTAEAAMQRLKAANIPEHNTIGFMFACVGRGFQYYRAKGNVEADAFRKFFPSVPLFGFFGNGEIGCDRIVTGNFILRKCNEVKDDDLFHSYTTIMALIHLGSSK
Sequence of SKP1-FBXO22 heterodimer, wild type, tag-free (UniProt P63208) (P63208 2-163, chain 1 of 2): as the sequence (P63208 2-163, chain 1 of 2) above
Sequence of SKP1-FBXO22 heterodimer, wild type, tag-free (UniProt P63208) (Q8NEZ5 12-403, chain 2 of 2, further chain): as the sequence (Q8NEZ5 12-403, chain 2 of 2, further chain) above

Consider “BACH1^BTB A53V mutant (cancer-associated, TCGA) (from UniProt O14867 7-128) (domain or fragment)”, for which the stoichiometry N – broadly, the number of molecules, sites or subunits per partner or assembly – in [1] came to 2. “BACH1^BTB Y11A (from UniProt O14867 7-128) (domain or fragment)” displayed a stoichiometry N in series [2] of 2. Consider “BACH1^BTB E12R (from UniProt O14867 7-128) (domain or fragment)”, for which, in series [3], the stoichiometry N came to 2. For “SKP1-FBXO22 heterodimer, wild type, tag-free (from UniProt P63208 2-163; Q8NEZ5 12-403) (complex)”, the stoichiometry N (equivalent SKP1-FBXO22) in series [4] was 1. Moreover, in series [5], the 50% inhibitory concentration (IC50) – broadly, the concentration at which inhibition is half-maximal – turned out to be 495 nM. In turn, “BACH1 BTB domain (residues 7-128), wild type, tag-free (from UniProt O14867 7-128) (domain or fragment)” returned a stoichiometry N in series [6] of 2. The Kd (as a rule, the free concentration of one partner at which half of the binding sites on the other are occupied at equilibrium, for simple one-to-one binding) in [7] is 124 nM and 83.9 nM; in series [8], 57.7 nM. In the case of “BACH1^BTB S13A (from UniProt O14867 7-128) (domain or fragment)”, the stoichiometry N in [9] worked out at 2. In [10], “BACH1^BTB S13D (from UniProt O14867 7-128) (domain or fragment)” showed a stoichiometry N of 2.

As to “BACH1^BTB Y11H mutant (cancer-associated, TCGA) (from UniProt O14867 7-128) (domain or fragment)”, the stoichiometry N in [11] is 2.

Regarding “BACH1^BTB Y11F (from UniProt O14867 7-128) (domain or fragment)”, the stoichiometry N in series [12] was 2. In turn, “BTFA-modified BACH1^BTB (from UniProt O14867 7-128) (domain or fragment)” returned a stoichiometry N in series [13] of 2.

“BACH1^BTB F9A (from UniProt O14867 7-128) (domain or fragment)” came in with a stoichiometry N in series [14] of 2.

B1: full-length BACH1 (residues 2-736), tag-free (natural protein)
chain: SLSENSVFAYESSVHSTNVLLSLNDQRKKDVLCDVTIFVEGQRFRAHRSVLAACSSYFHSRIVGQADGELNITLPEEVTVKGFEPLIQFAYTAKLILSKENVDEVCKCVEFLSVHNIEESCFQFLKFKFLDSTADQQECPRKKCFSSHCQKTDLKLSLLDQRDLETDEVEEFLENKNVQTPQCKLRRYQGNAKASPPLQDSASQTYESMCLEKDAALALPSLCPKYRKFQKAFGTDRVRTGESSVKDIHASVQPNERSENECLGGVPECRDLQVMLKCDESKLAMEPEETKKDPASQCPTEKSEVTPFPHNSSIDPHGLYSLSLLHTYDQYGDLNFAGMQNTTVLTEKPLSGTDVQEKTFGESQDLPLKSDLGTREDSSVASSDRSSVEREVAEHLAKGFWSDICSTDTPCQMQLSPAVAKDGSEQISQKRSECPWLGIRISESPEPGQRTFTTLSSVNCPFISTLSTEGCSSNLEIGNDDYVSEPQQEPCPYACVISLGDDSETDTEGDSESCSAREQECEVKLPFNAQRIISLSRNDFQSLLKMHKLTPEQLDCIHDIRRRSKNRIAAQRCRKRKLDCIQNLESEIEKLQSEKESLLKERDHILSTLGETKQNLTGLCQKVCKEAALSQEQIQILAKYSAADCPLSFLISEKDKSTPDGELALPSIFSLSDRPPAVLPPCARGNSEPGYARGQESQQMSTATSEQAGPAEQCRQSGGISDFCQQMTDKCTTDE
Consider B1, for which the “stoichiometry N” value in series [15] is 2. Besides, in [7], the Kd is 44.3 nM and 28.6 nM; the off-rate constant (koff) – broadly, a measure of how fast the partners let go of each other – stood at 0.0021 s⁻¹; the kon (in general, the rate constant with which the complex forms) was determined as 470000 M⁻¹ s⁻¹. The stoichiometry N (BACH1^FL per SKP1-FBXO22 heterodimer) in series [16] amounted to 2.
